Source: article PMC4682653

System: UvrY-His6 phosphorylated (UvrY-P) (Escherichia coli MG1655)
Experiment: EMSA
Conditions: in vitro phosphorylated; 20 mM Tris-HCl pH 7.5, 10% glycerol, 50 mM KCl, 3 mM MgCl2, 1 mM DTT, 100 ug/mL BSA, 0.5 nM DNA, 30 min at 37 C (Fig 3 legend: room temperature)

Substance	binding signal (fold affinity vs non-phosphorylated UvrY)
csrB EMSA probe (-246 to +49)	2
csrC EMSA probe (-247 to +56)	2
